How the values were obtained:
[1] = substrate: Nc1nc2c(ncn2[C@@H]2O[C@H](COP(=O)(O)OP(=O)(O)OP(=O)(O)O)[C@@H](O)[C@@H]2F)c(=O)[nH]1; assay: steady-state primer extension, denaturing PAGE, Michaelis-Menten fit; type: biochemical, Bos taurus; details: 100 nM ssDNA primer FAM-18G, 10 mM Mg(OAc)2, 1x TdT buffer (100 mM KCl, 30 mM Tris-acetate, 0.05% Triton X-100), pH 7.5, 37°C
Source text: (§1) steady-state primer extension, denaturing PAGE, Michaelis-Menten fit on bovine TdT

[2] = substrate: O=c1ccn([C@@H]2O[C@H](COP(=O)(O)OP(=O)(O)OP(=O)(O)O)[C@@H](O)[C@@H]2F)c(=O)[nH]1; assay: as above; type: biochemical, Bos taurus; details: 100 nM ssDNA primer FAM-18G, 10 mM Mg(OAc)2, 1x TdT buffer (100 mM KCl, 30 mM Tris-acetate, 0.05% Triton X-100), pH 7.5, 37°C
Source text: as §1

[3] = substrate: Nc1ccn([C@H]2C[C@H](O)[C@@H](COP(=O)(O)OP(=O)(O)OP(=O)(O)O)O2)c(=O)n1; assay: as above; type: biochemical, Bos taurus; details: 100 nM ssDNA primer FAM-18G, 10 mM Mg(OAc)2, 1x TdT buffer (100 mM KCl, 30 mM Tris-acetate, 0.05% Triton X-100), pH 7.5, 37°C
Source text: as §1

[4] = substrate: Nc1ncnc2c1ncn2[C@@H]1O[C@H](COP(=O)(O)OP(=O)(O)OP(=O)(O)O)[C@@H](O)[C@H]1F; assay: as above; type: biochemical, Bos taurus; details: 100 nM ssDNA primer FAM-18G, 10 mM Mg(OAc)2, 1x TdT buffer (100 mM KCl, 30 mM Tris-acetate, 0.05% Triton X-100), pH 7.5, 37°C
Source text: as §1

[5] = substrate: Nc1nc2c(ncn2[C@@H]2O[C@H](COP(=O)(O)OP(=O)(O)OP(=O)(O)O)[C@@H](O)[C@H]2F)c(=O)[nH]1; assay: as above; type: biochemical, Bos taurus; details: 100 nM ssDNA primer FAM-18G, 10 mM Mg(OAc)2, 1x TdT buffer (100 mM KCl, 30 mM Tris-acetate, 0.05% Triton X-100), pH 7.5, 37°C
Source text: as §1

[6] = substrate: Nc1ccn([C@@H]2O[C@H](COP(=O)(O)OP(=O)(O)OP(=O)(O)O)[C@@H](O)[C@@H]2F)c(=O)n1; assay: as above; type: biochemical, Bos taurus; details: 100 nM ssDNA primer FAM-18G, 10 mM Mg(OAc)2, 1x TdT buffer (100 mM KCl, 30 mM Tris-acetate, 0.05% Triton X-100), pH 7.5, 37°C
Source text: as §1

[7] = substrate: Nc1ncnc2c1ncn2[C@@H]1O[C@H](COP(=O)(O)OP(=O)(O)OP(=O)(O)O)[C@@H](O)[C@@H]1F; assay: as above; type: biochemical, Bos taurus; details: 100 nM ssDNA primer FAM-18G, 10 mM Mg(OAc)2, 1x TdT buffer (100 mM KCl, 30 mM Tris-acetate, 0.05% Triton X-100), pH 7.5, 37°C
Source text: as §1

purified protein = substrate: Nc1ncnc2c1ncn2[C@H]1C[C@H](O)[C@@H](COP(=O)(O)OP(=O)(O)OP(=O)(O)O)O1; assay: purified protein; details: 100 nM ssDNA primer FAM-18G, 10 mM Mg(OAc)2, 1x TdT buffer (100 mM KCl, 30 mM Tris-acetate, 0.05% Triton X-100), pH 7.5, 37°C
[8] = substrate: CO[C@@H]1[C@H](O)[C@@H](COP(=O)(O)OP(=O)(O)OP(=O)(O)O)O[C@H]1n1cnc2c(=O)[nH]c(N)nc21; assay: purified protein, by the assay type; set-up: Steady-state single-nucleotide incorporation into primer FAM-18G, denaturing PAGE band quantification, Michaelis-Menten fit
Protocol: (§2) The steady-state kinetic experiments were performed as described previously with minor modifications ([61]). A 2× reaction solution was prepared by mixing 200 nM primer FAM-18G, 0–128 μM 2′-modified NTP and 20 mM Mg(OAc)2 in 2× TdT buffer. A 5 μl aliquot of pre-warmed 2× reaction solution was mixed with 5 μl of bovine TdT, MTdT-evo or murine TdT of varying concentration, and incubated at 37°C for a certain time. The reaction was then quenched by the addition of 10 μl of 2× TBE-urea sample buffer and incubation at 95°C for 10 min. The products were analysed with 20% denaturing PAGE gels containing 8 M urea. All gel bands were quantified using Quantity One analysis software (Bio-Rad). Km and kcat values were calculated by fitting the data to the Michaelis–Menten equation with GraphPad Prism 8 software. To quantify the activities of different TdTs for the incorporation of 2′-modified NTPs, steady-state kinetic experiments were carried out.

[9] = substrate: CO[C@@H]1[C@H](O)[C@@H](COP(=O)(O)OP(=O)(O)OP(=O)(O)O)O[C@H]1n1ccc(N)nc1=O; assay: purified protein, by the assay type; set-up: Steady-state single-nucleotide incorporation into primer FAM-18G, denaturing PAGE band quantification, Michaelis-Menten fit
Protocol: as §2

[10] = substrate: Cc1cn([C@H]2C[C@H](O)[C@@H](COP(=O)(O)OP(=O)(O)OP(=O)(O)O)O2)c(=O)[nH]c1=O; assay: purified protein, by the assay type; set-up: Steady-state single-nucleotide incorporation into primer FAM-18G, denaturing PAGE band quantification, Michaelis-Menten fit
Protocol: as §2

[11] = substrate: O=c1ccn([C@@H]2O[C@H](COP(=O)(O)OP(=O)(O)OP(=O)(O)O)[C@@H](O)[C@H]2F)c(=O)[nH]1; assay: purified protein, by the assay type; set-up: Steady-state single-nucleotide incorporation into primer FAM-18G, denaturing PAGE band quantification, Michaelis-Menten fit
Protocol: as §2

B1: bovine TdT (Bos taurus) (protein)
chain: MDPLCTASSGPRKKRPRQVGASMASPPHDIKFQNLVLFILEKKMGTTRRNFLMELARRKGFRVENELSDSVTHIVAENNSGSEVLEWLQVQNIRASSQLELLDVSWLIESMGAGKPVEITGKHQLVVRTDYSATPNPGFQKTPPLAVKKISQYACQRKTTLNNYNHIFTDAFEILAENSEFKENEVSYVTFMRAASVLKSLPFTIISMKDTEGIPCLGDKVKCIIEEIIEDGESSEVKAVLNDERYQSFKLFTSVFGVGLKTSEKWFRMGFRSLSKIMSDKTLKFTKMQKAGFLYYEDLVSCVTRAEAEAVGVLVKEAVWAFLPDAFVTMTGGFRRGKKIGHDVDFLITSPGSAEDEEQLLPKVINLWEKKGLLLYYDLVESTFEKFKLPSRQVDTLDHFQKCFLILKLHHQRVDSSKSNQQEGKTWKAIRVDLVMCPYENRAFALLGWTGSRQFERDIRRYATHERKMMLDNHALYDKTKRVFLKAESEEEIFAHLGLDYIEPWERNA
notes: recombinant, plasmid pET30a-bovine TdT, E. coli BL21(DE3)
- Km [1]: 2.91 ± 0.52 µM
- kcat [1]: 0.0638 ± 0.00417 s⁻¹
- kcat/Km [1]: 22000 M⁻¹ s⁻¹
- Km [2]: 2.63 ± 0.77 µM
- kcat [2]: 0.0148 ± 0.00065 s⁻¹
- kcat/Km [2]: 5630 M⁻¹ s⁻¹
- Km [3]: 3.14 ± 0.46 µM
- kcat [3]: 0.02 ± 0.001 s⁻¹
- kcat/Km [3]: 6370 M⁻¹ s⁻¹
- Km [4]: 0.97 ± 0.27 µM
- kcat [4]: 0.00933 ± 0.0011 s⁻¹
- kcat/Km [4]: 9620 M⁻¹ s⁻¹
- Km [5]: 4.03 ± 0.52 µM
- kcat [5]: 0.0182 ± 0.000483 s⁻¹
- kcat/Km [5]: 4500 M⁻¹ s⁻¹
- Km [6]: 2.83 ± 0.69 µM
- kcat [6]: 0.0285 ± 0.00317 s⁻¹
- kcat/Km [6]: 10100 M⁻¹ s⁻¹
- Km [7]: 2.23 ± 0.32 µM
- kcat [7]: 0.0443 ± 0.00717 s⁻¹
- kcat/Km [7]: 19800 M⁻¹ s⁻¹
- Km (purified protein): 2.65 ± 0.76 µM
- kcat (purified protein): 0.00517 s⁻¹
- kcat/Km (purified protein): 1950 M⁻¹ s⁻¹
- Km [8]: 6.10 ± 1.50 µM
- kcat [8]: 0.000683 ± 2.17e-05 s⁻¹
- kcat/Km [8]: 112 M⁻¹ s⁻¹
- Km [9]: 5.87 ± 0.76 µM
- kcat [9]: 0.0004 ± 5.83e-05 s⁻¹
- kcat/Km [9]: 68.2 M⁻¹ s⁻¹
- Km [10]: 4.19 ± 0.91 µM
- kcat [10]: 0.0075 ± 0.000833 s⁻¹
- kcat/Km [10]: 1780 M⁻¹ s⁻¹
- Km [11]: 5.33 ± 1.58 µM
- kcat [11]: 0.00267 ± 0.000112 s⁻¹
- kcat/Km [11]: 500 M⁻¹ s⁻¹

Source: PMC11417362, “Template-independent synthesis and 3′-end labelling of 2′-modified oligonucleotides with terminal deoxynucleotidyl transferases” (Nucleic Acids Research, 2024)
